In patent US20170058053A1 (Xencor, published 2017):

Key:
[1] = molecular target: T1, HM1.24 antigen on a Biacore chip (UniProt Q10589 49-161, limits assumed); assay: SPR (Biacore), 100 nM mAb-Fv injected over a HM1.24 chip
T1 construct: also called HM1.24 chip
T1 sequence (looked up): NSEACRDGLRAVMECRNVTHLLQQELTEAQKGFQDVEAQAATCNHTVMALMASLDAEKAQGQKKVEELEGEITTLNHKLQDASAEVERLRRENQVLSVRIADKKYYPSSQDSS

FcγRIIIa, V158 isoform [2] = molecular target: T2, FcγRIIIa, V158 isoform (human, UniProt P08637 17-208, limits assumed); assay: SPR (Biacore); the reference value of native IgG1 (280 nM) is cited from the literature
T2 construct: no change against a named entry is printed; also called FcγRIIIa(158V); V158 FcγRIIIa
Experimental: Affinity of the mAb-Fv for FcγRIIIa was measured using Biacore®. The protein A capture format was used as described above, except that sensorgrams were obtained for a concentration series of receptor analyte in order to calculate an accurate affinity. […] Data were processed by zeroing time and response before the injection of receptor and by subtracting appropriate nonspecific signals (response of reference channel and injection of running buffer). The equilibrium constant was calculated by global fitting of binding data with a 1:1 Langmuir binding model using BIAevaluation software.
Similar binding experiments were carried out for the αHM1.24×αFcγRIIIa mAb-Fv. […] Data were processed by zeroing time and response before the injection of receptor and by subtracting appropriate nonspecific signals. The equilibrium constant was calculated by global fitting of binding data with a 1:1 Langmuir binding model using BIAevaluation software.

FcγRIIIa, V158 isoform [3] = molecular target: T2, FcγRIIIa, V158 isoform; assay: SPR (Biacore), 9518 captured (protein A by the text, HM1.24 by the legend of FIG. 16), receptor concentration series, 1:1 Langmuir global fit
Experimental: (§1) Binding measurements were performed using a Biacore® 3000 instrument (Biacore®). Antibodies were captured onto an immobilized Protein A (Pierce) CM5 biosensor chip (Biacore®), generated using a standard primary amine coupling protocol. All measurements were performed in HBS-EP (0.01 M HEPES pH 7.4, 0.15 M NaCl, 3 mM EDTA, 0.005% v/v surfactant P20), and glycine buffer (10 mM glycine-HCl, pH 1.5) was used for the Protein A surface regeneration. All antibodies (50 nM in HBS-EP) were immobilized on the Protein A surface. Fc receptors were injected over antibody bound surface, followed by a dissociation phase. After each cycle, the Protein A surface was regenerated by injecting glycine buffer (pH 1.5). Data were processed by zeroing time and response before the injection of receptor and by subtracting appropriate nonspecific signals (response of reference channel and injection of running buffer).
Data were processed by zeroing time and response before the injection of receptor and by subtracting appropriate nonspecific signals. The equilibrium constant was calculated by global fitting of binding data with a 1:1 Langmuir binding model using BIAevaluation software.

FcγRIIb [4] = molecular target: T3, FcγRIIb (human, UniProt P31994 43-217, limits assumed); assay: SPR (Biacore); the reference value of native IgG1 (2.3 µM) is cited from the literature
T3 construct: also called CD32b
T3 sequence (looked up): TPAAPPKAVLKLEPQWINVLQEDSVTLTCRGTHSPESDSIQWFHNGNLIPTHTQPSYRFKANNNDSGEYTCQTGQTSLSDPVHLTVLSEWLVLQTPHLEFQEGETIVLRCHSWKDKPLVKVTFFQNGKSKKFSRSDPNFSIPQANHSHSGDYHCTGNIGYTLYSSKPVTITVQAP

FcγRIIb [5] = molecular target: T3, FcγRIIb; assay: SPR (Biacore), 9547 captured on protein A, receptor concentration series, 1:1 Langmuir global fit
Experimental: as §1

T2 sequence (P08637 17-208 F176V limits assumed): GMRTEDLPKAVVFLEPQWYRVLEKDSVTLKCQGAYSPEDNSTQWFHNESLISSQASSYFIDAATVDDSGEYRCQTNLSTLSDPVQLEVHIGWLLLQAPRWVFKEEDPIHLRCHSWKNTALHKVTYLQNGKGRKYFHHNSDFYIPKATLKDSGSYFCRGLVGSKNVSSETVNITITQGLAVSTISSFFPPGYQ

B1: 9518 αHM1.24×αFcγRIIIa mAb-Fv (bispecific antibody, IgG1)
heavy 1: QVQLVQSGAEVKKPGASVKVSCKASGYTFTPYWMQWVRQAPGQGLEWMGSIFPGSGDTRYSQSFQGQVTISADKSISTAYMELSRLRSDDTAVYYCARGLRRGGYYFDYWGQGTLVTVSSASTKGPSVFPLAPSSKSTSGGTAALGCLVKDYFPEPVTVSWNSGALTSGVHTFPAVLQSSGLYSLSSVVTVPSSSLGTQTYICNVNHKPSNTKVDKKVEPKSCDKTHTCPPCPAPELLRGPSVFLFPPKPKDTLMISRTPEVTCVVVDVSHEDPEVKFNWYVDGVEVHNAKTKPREEQYNSTYRVVSVLTVLHQDWLNGKEYKCKVSNKARPAPIEKTISKAKGQPREPQVTTLPPSREEMTKNQVSLTCLVKGFYPSDIAVEWESNGQPENNYKTFPPVLDSDGSFFLYSKLTVDKSRWQQGNVFSCSVMHEALHNHYTQKSLSLSPGKSSDKTHTSPPSPGGGGSGGGGSGGGGSGGGGQVTLKESGPGILQPSQTLSLTCSFSGFSLRTSGMGVGWIRQPSGKGLEWLAHIWWDDDKRYNPALKSRLTISKDTSSNQVFLKIASVDTADTATYYCAQINPAWFAYWGQGTLVTVSASGHHHHHH
heavy 2: QVQLVQSGAEVKKPGASVKVSCKASGYTFTPYWMQWVRQAPGQGLEWMGSIFPGSGDTRYSQSFQGQVTISADKSISTAYMELSRLRSDDTAVYYCARGLRRGGYYFDYWGQGTLVTVSSASTKGPSVFPLAPSSKSTSGGTAALGCLVKDYFPEPVTVSWNSGALTSGVHTFPAVLQSSGLYSLSSVVTVPSSSLGTQTYICNVNHKPSNTKVDKKVEPKSCDKTHTCPPCPAPELLRGPSVFLFPPKPKDTLMISRTPEVTCVVVDVSHEDPEVKFNWYVDGVEVHNAKTKPREEQYNSTYRVVSVLTVLHQDWLNGKEYKCKVSNKARPAPIEKTISKAKGQPREPQVYTLPPSREEMTKNQVHLTCLVKGFYPSDIAVEWESNGQPENNYKTTPPVLDSDGSFALYSKLTVDKSRWQQGNVFSCSVMHEALHNHYTQKSLSLSPGKSSDKTHTSPPSPGGGGSGGGGSGGGGSGGGGDIVLTQSPASLAVSLGQRATISCKASQSVDFDGDSFMNWYQQKPGQPPKLLIYTTSNLESGIPARFSASGSGTDFTLNIHPVEEEDTATYYCQQSNEDPYTFGGGTKLELKSGDYKDDDDK
light: DIVMTQSPLSLPVTLGQPASISCKASQDVNTAVAWYLQKPGKSPKLLIYSASNRYTGVPDRITGSGSGTDFTLKISRVEAEDVGVYYCQQHYSTPFTFGSGTKLEIKRTVAAPSVFIFPPSDEQLKSGTASVVCLLNNFYPREAKVQWKVDNALQSGNSQESVTEQDSKDSTYSLSSTLTLSKADYEKHKVYACEVTHQGLSSPVTKSFNRGEC
notes: mAb-Fv, IgG1 G236R/L328R, hetero-Fc TF-HA, Linker 2; copies: 1 + 1 + 2
B1 was tested, and the binding result [1] was “binds”, the “fold tighter than native IgG1” value (FcγRIIIa, V158 isoform [2]) was about 2.9 fold and the Kd (FcγRIIIa, V158 isoform [3]) was 96 nM.

B2: 9547 αCD19×αFcγRIIb mAb-Fv (bispecific antibody, IgG1)
heavy 1: EVQLVESGGGLVKPGGSLKLSCAASGYTFTSYVMHWVRQAPGKGLEWIGYINPYNDGTKYNEKFQGRVTISSDKSISTAYMELSSLRSEDTAMYYCARGTYYYGTRVFDYWGQGTLVTVSSASTKGPSVFPLAPSSKSTSGGTAALGCLVKDYFPEPVTVSWNSGALTSGVHTFPAVLQSSGLYSLSSVVTVPSSSLGTQTYICNVNHKPSNTKVDKKVEPKSCDKTHTCPPCPAPELLRGPSVFLFPPKPKDTLMISRTPEVTCVVVDVSHEDPEVKFNWYVDGVEVHNAKTKPREEQYNSTYRVVSVLTVLHQDWLNGKEYKCKVSNKARPAPIEKTISKAKGQPREPQVTTLPPSREEMTKNQVSLTCLVKGFYPSDIAVEWESNGQPENNYKTFPPVLDSDGSFFLYSKLTVDKSRWQQGNVFSCSVMHEALHNHYTQKSLSLSPGKGGGGSGGGGSGGGGSGGGGSGGGGSGGGGQVQLQQPVTELVRPGASVMLSCKASDYPFTNYWIHWVKQRPGQGLEWIGVIDPSDTYPNYNKKFKGKATLTVVVSSSTAYMQLSSLTSDDSAVYYCARNGDSDYYSGMDYWGQGTSVTVSSGSHHHHHH
heavy 2: EVQLVESGGGLVKPGGSLKLSCAASGYTFTSYVMHWVRQAPGKGLEWIGYINPYNDGTKYNEKFQGRVTISSDKSISTAYMELSSLRSEDTAMYYCARGTYYYGTRVFDYWGQGTLVTVSSASTKGPSVFPLAPSSKSTSGGTAALGCLVKDYFPEPVTVSWNSGALTSGVHTFPAVLQSSGLYSLSSVVTVPSSSLGTQTYICNVNHKPSNTKVDKKVEPKSCDKTHTCPPCPAPELLRGPSVFLFPPKPKDTLMISRTPEVTCVVVDVSHEDPEVKFNWYVDGVEVHNAKTKPREEQYNSTYRVVSVLTVLHQDWLNGKEYKCKVSNKARPAPIEKTISKAKGQPREPQVYTLPPSREEMTKNQVHLTCLVKGFYPSDIAVEWESNGQPENNYKTTPPVLDSDGSFALYSKLTVDKSRWQQGNVFSCSVMHEALHNHYTQKSLSLSPGKGGGGSGGGGSGGGGSGGGGSGGGGSGGGGDILLTQSPAILSVSPGERVSFSCRTSQSIGTNIHWYQQRTNGFPRLLIKNVSESISGIPSRFSGSGSGTDFILSINSVESEDIADYYCQQSNTWPFTFGGGTKLEIKGSHHHHHH
light: DIVMTQSPATLSLSPGERATLSCRSSKSLQNVNGNTYLYWFQQKPGQSPQLLIYRMSNLNSGVPDRFSGSGSGTEFTLTISSLEPEDFAVYYCMQHLEYPITFGAGTKLEIKRTVAAPSVFIFPPSDEQLKSGTASVVCLLNNFYPREAKVQWKVDNALQSGNSQESVTEQDSKDSTYSLSSTLTLSKADYEKHKVYACEVTHQGLSSPVTKSFNRGEC
notes: mAb-Fv, IgG1 G236R/L328R, hetero-Fc TF-HA, Linker 3; also called 9547 mAb-Fv; copies: 1 + 1 + 2
With B2 the “fold tighter than native IgG1” value (FcγRIIb [4]) was about 52 fold and the Kd (FcγRIIb [5]) was 44 nM.
